For this series, the system named is MS2 coat protein. Nature of the series: apparent KD of MS2 coat protein; designed switch direction (-1 OFF switch, 1 ON switch): -1; higher = weaker reporter binding. The procedure, abridged: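 Designed RNA switches with common flanks were made on Illumina chips by stalled E. coli RNA polymerase. Titration with SNAP-549-labelled MS2 coat protein doubled from 0.7 or 1.5 nM up to 3 µM. Apparent KD is each design's median over clusters after curve-fitting normalised fluorescence.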

The mark [1] stands for this setting: Eterna round: R95, input ligand: FMN 200 uM.
Setting [2] is: Eterna round: R95, input ligand: microRNA oligo, concentration not stated.
The mark [3] stands for this setting: Eterna round: R95, input ligand: none.
The mark [4] stands for this setting: input ligand: microRNA oligo, concentration not stated.

This is an account of results in the supplement of paper PMC9170038.

“UAAUACAUCUAUGGGAGUAACAUGAGGAUCACCCAUGUAUGUCUUGUUUUUUGUUCGUCAAAGACUUUCUGAUCAGU [JR_SV3TOV1_Sub030] (puzzle: Sensor v3, turn-off variant 1)”: the “apparent KD of MS2 coat protein” value came to 0.0767 µM under setting [1], 0.191 µM under setting [2] and 0.0832 µM under setting [3].
Taken in the same sequence, the figures for “AGAUGGCGAGGAUAUACAUGAGGAUCACCCAUGUGAAGAUAAAGAGUGAGGAAGAAAAGUAGAAGGCGCUGUCA [Mat - Exclusion 3 - Mod of Salish D28] (puzzle: Exclusion 3)” were 0.351 µM, 0.106 µM and 0.123 µM.
With “AUAAAGUGAGGAUAUCCAAUAUAUGACAUGAGGAUCACCCAUGUUUCCACUCGUACCUCCGGAGAAGGCACAAAAU [Ex5 #61] (Eterna round: R97, puzzle: Exclusion 5)”, the “apparent KD of MS2 coat protein” value came out at 0.0245 µM (input ligand: FMN 200 uM) and 0.0305 µM (input ligand: none).
Taken in the same sequence, the figures for “GAUGAAAGAGUCAGGAUAUAUAACCACGACGGCUUGUAGAAGGGACAUGAGGAUCACCCAUGUGAUGGAAUGAU [Eternabot (L2) Solution 13] (Eterna round: R97, puzzle: Brourd's mod of Exclusion 4)” were 0.064 µM and 0.0436 µM.
For the sequence “UUAUGUGCGAGAGGAUAUCGUGUACAAAGUACACGAGAAGGCUUCACAUGAGGAUCACCCAUGUACCGAGGUGAAACACCUUGA [Omei Exc(NG)1 Bv7] (Eterna round: R96, puzzle: Exclusion NG 1)”, the “apparent KD of MS2 coat protein” value was found to be 0.66 µM (input ligand: FMN 200 uM), 0.476 µM under setting [4] and 0.887 µM (input ligand: none).
Take “AGCAUGGUAGGAUAUACGGAGCAUUAGGGUUUGUUGUGUGGACAUGAGGAUCACCCAUGUAGAAGGGCCGUGCA [Mat - Exclusion 2 - Mod of JL - D83] (puzzle: Exclusion 2)”: under setting [2], the “apparent KD of MS2 coat protein” value stood at 0.0335 µM.
Still for that read-out and setting: the figure for “UGCAUGCUAGGAUAUACGGGACAUUAGGGUUCGUCGUAUGGACAUGAGGAUCACCCAUGUAGAAGGAGCGUGCU [Mod4 of JL-ex2-2.15 mat747 mod] (puzzle: Exclusion 2)” is 0.0187 µM; for “GUAGAGUAAGGAUAUGCUGAAUAGGAUAGAAUGGUUAGAAAGUAGAAGGUACAUGAGGAUCACCCAUGUAAUGU [Excluse me!!!! 24 - Jieux - Exclusion 4] (puzzle: Exclusion 4)” it is 0.0203 µM.
Regarding “AAAGCACAUGAGGAUCACCCAUGUGAGGAUAUACAGAAAAUCUCGUUUACGAGGACUCGUAGAAGGCGCAGUGC [Eternabot (L2) Solution 19] (Eterna round: R97, puzzle: Exclusion 1)”, the “apparent KD of MS2 coat protein” value by setting is: (input ligand: FMN 200 uM) 0.0209 µM; (input ligand: none) 0.0213 µM.
Taken in the same sequence, the figures for “CUCAUUUGUCAGGAUAUCGUGUGGCUAAUUGUACGAGAAGGGACGACAUGAGGAUCACCCAUGUGGUCUUUGAG [JR_Ex6_Sub083] (Eterna round: R97, puzzle: Exclusion 6)” were 0.196 µM and 0.0548 µM.
In the case of “GUAGAGUAAGGAUAUUGAGAAUAGGAUAGAAUGGUUAGAAUCAAGAAGGUACAUGAGGAUCACCCAUGUAAUGU [Excluse me!!!! 6 - Jieux - Exclusion 4] (puzzle: Exclusion 4)”, the “apparent KD of MS2 coat protein” value runs as follows: under setting [1], 0.0168 µM; under setting [2], 0.0222 µM; under setting [3], 0.0197 µM.
With “UUUUUACAUGAGGAUCACCCAUGUGAGGAUAUGGUUUCGCUGGCCGUAGCCAGUGGAACCAGAAGGCGCAUGAU [Mat - Exclusion 1 - JL Mod - D8] (Eterna round: R97, puzzle: Exclusion 1)”, the “apparent KD of MS2 coat protein” value by setting is: (input ligand: FMN 200 uM) 0.374 µM; (input ligand: none) 0.0847 µM.
As for “GCGUAUGAGCAGGAUAUCCGACGGGAAUCCAAAGGAGAAGGGCUCACAUGAGGAUCACCCAUGUGGUCCAAAAC [Agediat] (puzzle: Exclusion 6)”, the “apparent KD of MS2 coat protein” value is, setting by setting: under setting [1], 0.109 µM; under setting [2], 0.024 µM; under setting [3], 0.0273 µM.
As to “CCCGACAUGUCUUCGUAAUACAUGAGGAUCACCCAUGUCACGUAGGAUAUCCAGUCGGUAAGAGAGGAGAAGGAUGUAAGAAAU [Vedite] (Eterna round: R96, puzzle: Exclusion NG 3)”, the “apparent KD of MS2 coat protein” value (input ligand: FMN 200 uM) is 0.0155 µM, the “apparent KD of MS2 coat protein” value under setting [4] stood at 0.00914 µM and the “apparent KD of MS2 coat protein” value (input ligand: none) was determined as 0.0155 µM.
Turning to “AGGUGCUUCAGGAGACAUGAGGAUCACCCAUGUUGAGUUAGCGAGGAUAUCGGUAACCCAUGUGAUGAGAAGGCGCAAACCAAU [Ex NG3 #46] (Eterna round: R96, puzzle: Exclusion NG 3)”, the “apparent KD of MS2 coat protein” value is, setting by setting: (input ligand: FMN 200 uM) 0.0929 µM; under setting [4], 0.0524 µM; (input ligand: none) 0.0741 µM.
On to “ACUGGUCGAGGAUAUACAUGAGGAUCACCCAUGUGAUCAGCAGUCCUCGGACUGCAAUGUAGAAGGCGACCAGU [E3/1-A2] (Eterna round: R97, puzzle: Exclusion 3)”, for which the “apparent KD of MS2 coat protein” value by setting is: (input ligand: FMN 200 uM) 0.143 µM; (input ligand: none) 0.356 µM.
Taken in the same sequence, the figures for “GGCGAGCGAGGAUAUACAGGGUAUCCGACUCGCCGCGGGCGACAUGAGGAUCACCCAUGUAGAAGGCGCACGCG [EX2 A.18] (Eterna round: R97, puzzle: Exclusion 2)” were 0.0139 µM and 0.0176 µM.
Taken in the same sequence, the figures for “UAAACAUGGAUAUAACAGUACAUGAGGAUCACCCAUGUUAAUAUGAUAAAUUAUAACAAGUUUUUUUGUCGUCUUAA [Feeding at the Trough] (Eterna round: R97, puzzle: Sensor, turn-off variant 1)” were 0.047 µM and 0.19 µM.
Take “UUUUACAUAGGAUAUAGUUGCUUUUACAUGAGGAUCACCCAUGUCUCUCCUCUCUCUCUUCUAGAAGGAUGUUUCU [JR_E5_Sub011] (puzzle: Exclusion 5)”: the “apparent KD of MS2 coat protein” value under setting [2] came out at 0.0533 µM.
“UAGGCUUUAGGAUAUGCGUGUUGUAGUCGGCGAUGUGGUUCACAUGAGGAUCACCCAUGUAGAAGGAAAGUUUA [-17.2, -17 kcal, 26% A] (Eterna round: R97, puzzle: Exclusion 2)”: the “apparent KD of MS2 coat protein” value was determined as 0.244 µM (input ligand: FMN 200 uM) and 0.104 µM (input ligand: none).
For “AAAUUCUGAGGAUAUCGAUGUUUGUACAUGAGGAUCACCCAUGUCCUUUUUAUUUAAUCCCGAGAAGGCAGUGUAU [JR_E5_Sub098] (puzzle: Exclusion 5)”, under setting [2], the “apparent KD of MS2 coat protein” value came out at 0.0326 µM.
Still for that read-out and setting: the value for “AUCUUGUCAGGAUAUCUGACAAGUGACUUCGGUCACAGUUCAGAGAAGGUACAUGAGGAUCACCCAUGUAGAAC [Ex4-3: 39] (puzzle: Exclusion 4)” was 0.0179 µM.
Regarding “CAAACCUCAGGAUAUCGAGACUCGGACAUGAGGAUCACCCAUGUGAGGCUCGUGAGUCCACGAGAAGGGAGGAGCA [Eternabot (Original) Solution 38] (Eterna round: R97, puzzle: Exclusion 5)”, the “apparent KD of MS2 coat protein” value reads like this: (input ligand: FMN 200 uM) 0.0261 µM; (input ligand: none) 0.0174 µM.
For “CUGUACUGAGGAUAUACAUGAGGAUCACCCAUGUGUUCCAGCUAGGAAACUAGCAAAAGUAGAAGGCAGUACAG [Mat - Exclusion 3 - Eli Mod - D65] (Eterna round: R97, puzzle: Exclusion 3)” the same measures were 0.332 µM and 0.0305 µM.
